Results taken from the supplement of paper PMC10126150.
± gives the standard deviation of the averaged measurements.

What follows are sequences tested on ATP (assay: switch fluorescence ratio, 500 uM ATP over buffer (Cy3 cluster intensity, sum of 5 cycles each) (fold (ratio)); higher = stronger signal-on switching upon ATP binding; sequences stand for … in TCGTCGGCAGCGTCAGATGTGTATAAGAGACAGTTTTTTTTTTTTTTTTTTTTTTTTT…TC). Details: aptamer strand: ATP DNA aptamer (quencher-CACCTGGGGGAGTATTGCGGAGGAAGG + anchor), 100 nM annealed; ATP concentration: 500 uM.
Summary of the method: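 Per cluster, summed Cy3 intensity from the target cycles was divided by that from the buffer cycles to give the fluorescence ratio, then averaged per switch-domain sequence. Clusters outside 100-1000 RFU were excluded. The Cy3-labelled switching-strand clusters, on a modified Illumina MiSeq flow-cell, were annealed to 100 nM quencher-labelled ATP aptamer and imaged in selection buffer, then after 15 min with 500 uM ATP at 22 °C, for five cycles with NaOH stripping and re-annealing between them.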
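Note: ATP exposure 15 min at 22 °C before imaging.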

| Sequence | switch fluorescence ratio |
| --- | --- |
| GGTCTGGGTG | 1.08 ± 0.066 |
| GGTCTGTTGT | 0.99 ± 0.049 |
| GGTCTTGTTT | 0.9891 ± 0.0078 |
| GGTCTTTTGG | 0.981 ± 0.013 |
| GGTGAAAGCT | 1.04 ± 0.019 |
| GGTGAAATTG | 1 ± 0.015 |
| GGTGAAGAGG | 0.9791 ± 0.0061 |
| GGTGAAGCCT | 0.991 ± 0.047 |
| GGTGAATGGC | 1.03 ± 0.017 |
| GGTGACACTT | 0.996 ± 0.033 |
| GGTGACGATT | 0.9712 ± 0.0065 |
| GGTGACGCTG | 0.992 ± 0.031 |
| GGTGACTGGG | 0.903 ± 0.042 |
| GGTGAGCTAG | 0.9866 ± 0.0034 |
| GGTGATAGTG | 0.983 ± 0.024 |
| GGTGATGAAA | 0.998 ± 0.025 |
| GGTGATGGTT | 0.986 ± 0.047 |
| GGTGATGTGG | 0.986 ± 0.022 |
| GGTGATTGAC | 1.18 ± 0.3 |
| GGTGCAATGA | 1.956 ± 0.0021 |
| GGTGCAGCTG | 0.981 ± 0.016 |
| GGTGCAGGAG | 0.999 ± 0.035 |
| GGTGCATATA | 1.05 ± 0.032 |
| GGTGCGCATA | 1.03 ± 0.019 |
| GGTGCGCATG | 0.994 ± 0.011 |

| Sequence | switch fluorescence ratio |
| --- | --- |
| GGTGCTAGAA | 0.9789 ± 0.0083 |
| GGTGCTAGTG | 0.999 ± 0.015 |
| GGTGCTGTGT | 1.01 ± 0.039 |
| GGTGGAAAAG | 1 ± 0.023 |
| GGTGGCGGAT | 1.07 ± 0.033 |
| GGTGGCGTTA | 0.999 ± 0.016 |
| GGTGGCTTTT | 1.02 ± 0.099 |
| GGTGGGATGA | 0.965 ± 0.015 |
| GGTGGGCGGA | 1.01 ± 0.029 |
| GGTGGGGAAC | 1.03 ± 0.068 |
| GGTGGGGAAT | 0.979 ± 0.022 |
| GGTGGGGATG | 0.984 ± 0.027 |
| GGTGGGGCTT | 0.998 ± 0.025 |
| GGTGGGGGTG | 0.998 ± 0.031 |
| GGTGTAATAG | 1.04 ± 0.036 |
| GGTGTAGAAC | 1 ± 0.049 |
| GGTGTAGCGA | 1.03 ± 0.026 |
| GGTGTAGGCA | 0.987 ± 0.03 |
| GGTGTAGGGA | 0.992 ± 0.013 |
| GGTGTAGGGG | 1.04 ± 0.074 |
| GGTGTAGTTG | 0.999 ± 0.037 |
| GGTGTATAAA | 0.967 ± 0.054 |
| GGTGTATAGG | 1.01 ± 0.011 |
| GGTGTATGAA | 0.994 ± 0.029 |
| GGTGTCCGGT | 0.998 ± 0.03 |

| Sequence | switch fluorescence ratio |
| --- | --- |
| GGTGTCGGGT | 0.99 ± 0.012 |
| GGTGTCTGGG | 0.984 ± 0.074 |
| GGTGTCTGGT | 1.001 ± 0.0061 |
| GGTGTCTTAC | 1.01 ± 0.029 |
| GGTGTGACCA | 1.02 ± 0.015 |
| GGTGTGCCAA | 1 ± 0.022 |
| GGTGTGCGGA | 1.02 ± 0.024 |
| GGTGTGCGTC | 1 ± 0.026 |
| GGTGTGGCTA | 0.989 ± 0.012 |
| GGTGTGGGGC | 1.01 ± 0.024 |
| GGTGTGGTGC | 1.02 ± 0.012 |
| GGTGTGTACG | 1.28 ± 0.41 |
| GGTGTGTGCT | 0.989 ± 0.049 |
| GGTGTGTGTC | 1.02 ± 0.02 |
| GGTGTGTTTT | 0.981 ± 0.048 |
| GGTGTTAATT | 0.9888 ± 0.0093 |
| GGTGTTAGTG | 0.977 ± 0.023 |
| GGTGTTATAT | 1.02 ± 0.04 |
| GGTGTTGATC | 1.03 ± 0.025 |
| GGTGTTTCGC | 0.994 ± 0.0095 |
| GGTGTTTCGG | 0.966 ± 0.014 |
| GGTGTTTGAC | 0.999 ± 0.011 |
| GGTGTTTTCG | 0.998 ± 0.03 |
| GGTTAAAGAA | 1.004 ± 0.0082 |
| GGTTAATAGG | 0.99 ± 0.013 |

| Sequence | switch fluorescence ratio |
| --- | --- |
| GGTTACAATT | 0.982 ± 0.032 |
| GGTTACACTG | 1.03 ± 0.025 |
| GGTTACTAAG | 1.01 ± 0.017 |
| GGTTAGAAAT | 0.98 ± 0.016 |
| GGTTAGAGTA | 1.01 ± 0.025 |
| GGTTAGATGG | 0.978 ± 0.043 |
| GGTTAGGAAG | 1.005 ± 0.0037 |
| GGTTAGGCGG | 0.954 ± 0.015 |
| GGTTAGGGGT | 1.08 ± 0.24 |
| GGTTATAATC | 0.969 ± 0.07 |
| GGTTATAATT | 1.004 ± 0.0011 |
| GGTTATACGA | 1.034 ± 0.0054 |
| GGTTATATGT | 1.02 ± 0.021 |
| GGTTATGAAT | 1 ± 0.015 |
| GGTTATGGTG | 1.02 ± 0.02 |
| GGTTATTATG | 0.978 ± 0.039 |
| GGTTATTGAG | 0.9799 ± 0.0044 |
| GGTTCAAGTT | 0.9816 ± 0.0095 |
| GGTTCACGGC | 1.03 ± 0.015 |
| GGTTCACGGT | 0.994 ± 0.026 |
| GGTTCAGAGA | 0.973 ± 0.033 |
| GGTTCATTCT | 0.9917 ± 0.0062 |
| GGTTCCACGC | 1.09 ± 0.025 |
| GGTTCCCACT | 0.9919 ± 0.0045 |
| GGTTCGCGGT | 1.02 ± 0.03 |
